Test [1] has as its target D20-20K (IL-2 with 20K PEG conjugated at Asp20) (UniProt P60568 21-153, D20 to NAEK, Nε-2-azideoethyloxycarbonyl-L-lysine (NAEK) at position 20, conjugated with DBCO-tethered PEG of 20 kDa by copper-free click reaction). The test can be described thus: SPR. A general note: Surface plasmon resonance follows binding to a sensor surface in real time, without labels.
The target of test [2] is Y45-20K (IL-2 with 20K PEG conjugated at Tyr45) (UniProt P60568 21-153, Y45 to NAEK, Nε-2-azideoethyloxycarbonyl-L-lysine (NAEK) at position 45, conjugated with DBCO-tethered PEG of 20 kDa by copper-free click reaction). Description: SPR.

From paper PMC12079483 (2025) come the findings set out here.

B1: extracellular domains of the trimeric IL-2 receptor (IL-2Rαβγ) (complex)
chain 1: ELCDDDPPEIPHATFKAMAYKEGTMLNCECKRGFRRIKSGSLYMLCTGNSSHSSWDNQCQCTSSATRNTTKQVTPQPEEQKERKTTEMQSPMQPVDQASLPGHCREPPPWENEATERIYHFVVGQMVYYQCVQGYRALHRGPAESVCKMTHGKTRWTQPQLICTGEMETSQFPGEEKPQASPEGRPESETSCLVTTTDFQIQTEMAATMETSIFTTEYQ
chain 2: AVNGTSQFTCFYNSRANISCVWSQDGALQDTSCQVHAWPDRRRWNQTCELLPVSQASWACNLILGAPDSQKLTTVDIVTLRVLCREGVRWRVMAIQDFKPFENLRLMAPISLQVVHVETHRCNISWEISQASHYFERHLEFEARTLSPGHTWEEAPLLTLKQKQEWICLETLTPDTQYEFQVRVKPLQGEFTTWSPWSQPLAFRTKPAALGKDT
chain 3: LNTTILTPNGNEDTTADFFLTTMPTDSLSVSTLPLPEVQCFVFNVEYMNCTWNSSSEPQPTNLTLHYWYKNSDNDKVQKCSHYLFSEEITSGCQLQKKEIHLYQTFVVQLQDPREPRRQATQMLKLQNLVIPWAPENLTLHKLSESQLELNWNNRFLNHCLEHLVQYRTDWDHSWTEQSVDYRHKFSLPSVDGQKRYTFRVRSRFNPLCGSAQHWSEWSHPIHWGSNTSKENPFLFALEA
As to B1, in test [1], the Kd (as a rule, the equilibrium constant for the complex coming apart) amounted to 58.1 nM.

B2: extracellular domain of the IL-2 receptor β chain (IL-2Rβ) (receptor)
chain: AVNGTSQFTCFYNSRANISCVWSQDGALQDTSCQVHAWPDRRRWNQTCELLPVSQASWACNLILGAPDSQKLTTVDIVTLRVLCREGVRWRVMAIQDFKPFENLRLMAPISLQVVHVETHRCNISWEISQASHYFERHLEFEARTLSPGHTWEEAPLLTLKQKQEWICLETLTPDTQYEFQVRVKPLQGEFTTWSPWSQPLAFRTKPAALGKDT
Regarding B2, binding in test [2] was characterised by a dissociation constant (Kd) of 690 nM.

B3: extracellular domain of the IL-2 receptor α chain (IL-2Rα, CD25) (receptor)
chain: ELCDDDPPEIPHATFKAMAYKEGTMLNCECKRGFRRIKSGSLYMLCTGNSSHSSWDNQCQCTSSATRNTTKQVTPQPEEQKERKTTEMQSPMQPVDQASLPGHCREPPPWENEATERIYHFVVGQMVYYQCVQGYRALHRGPAESVCKMTHGKTRWTQPQLICTGEMETSQFPGEEKPQASPEGRPESETSCLVTTTDFQIQTEMAATMETSIFTTEYQ
As for B3, the Kd in test [1] came to 99.9 nM.

B4: extracellular domains of the dimeric IL-2 receptor (IL-2Rβγ) (complex)
chain 1: AVNGTSQFTCFYNSRANISCVWSQDGALQDTSCQVHAWPDRRRWNQTCELLPVSQASWACNLILGAPDSQKLTTVDIVTLRVLCREGVRWRVMAIQDFKPFENLRLMAPISLQVVHVETHRCNISWEISQASHYFERHLEFEARTLSPGHTWEEAPLLTLKQKQEWICLETLTPDTQYEFQVRVKPLQGEFTTWSPWSQPLAFRTKPAALGKDT
chain 2: LNTTILTPNGNEDTTADFFLTTMPTDSLSVSTLPLPEVQCFVFNVEYMNCTWNSSSEPQPTNLTLHYWYKNSDNDKVQKCSHYLFSEEITSGCQLQKKEIHLYQTFVVQLQDPREPRRQATQMLKLQNLVIPWAPENLTLHKLSESQLELNWNNRFLNHCLEHLVQYRTDWDHSWTEQSVDYRHKFSLPSVDGQKRYTFRVRSRFNPLCGSAQHWSEWSHPIHWGSNTSKENPFLFALEA
For the molecule B4, the Kd in test [2] is 32.8 nM.
